The results in this text go back to the supplement of paper PMC7125110.

± gives the standard error. Fewer inactive variants are shown than the library holds.

First the molecules themselves.
B1: glmS ribozyme (parent)
chain: AUAAAAGCGCCAGAACUACAGAAAUGUAGUUGACGAGGAGGAGGUUUAUCGAAUUUUCGGCGGAUGCCUCCAAA

What all share (conditions): with glucosamine-6-phosphate
Variants of B1 are the subject of data set [1]. Briefly: self-cleavage kobs at 640 uM GlcN6P; higher = faster cleavage; RNA array. An outline of the steps: (§1)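 Glucosamine-6-phosphate (40 μM to 10 mM) in HEPES/KCl/Mg(OAc)2 buffer was flowed over sequenced MiSeq chips, and tiles were imaged over ~14 h. Barcoded ribozyme variants there had been transcribed in situ by E. coli RNA polymerase and were tracked through a hybridised Cy3 probe at 37 °C. One- or two-exponential decay fits to per-tile medians, normalised to baseline and to non-cleaving reference variants, gave kobs. kcat and KM came from weighted Michaelis–Menten fits across concentrations.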

Variants of B1 are the subject of data set [2]. Description: self-cleavage kobs at 2500 uM GlcN6P; higher = faster cleavage; RNA array. In short, it runs like this:
as §1

In data set [3] the parent is B1. Description: self-cleavage kobs at 10000 uM GlcN6P; higher = faster cleavage; RNA array. In short, it runs like this:
as §1

Take G7A C11A C34U A36C U45A: the “self-cleavage kobs at 640 uM GlcN6P” value with glucosamine-6-phosphate [1] was below 1e-05 s⁻¹. For the same variant, in the data set with glucosamine-6-phosphate [2], the “self-cleavage kobs at 2500 uM GlcN6P” value is below 1e-05 s⁻¹. Further, in the data set with glucosamine-6-phosphate [3], the “self-cleavage kobs at 10000 uM GlcN6P” value is below 1e-05 s⁻¹.

U45G U56C: the “self-cleavage kobs at 640 uM GlcN6P” value in the data set with glucosamine-6-phosphate [1] was 0.000204 ± 4.5e-05 s⁻¹. Further, the “self-cleavage kobs at 2500 uM GlcN6P” value with glucosamine-6-phosphate [2] stood at 0.000272 ± 7.1e-05 s⁻¹. The “self-cleavage kobs at 10000 uM GlcN6P” value with glucosamine-6-phosphate [3] turned out to be 0.000987 ± 0.00015 s⁻¹.

Regarding U31G A36U G38U A48U A53C G59C A64C, in the data set with glucosamine-6-phosphate [1], the “self-cleavage kobs at 640 uM GlcN6P” value is below 1e-05 s⁻¹.

G13U A39U A48U G51A U55G C70A: the “self-cleavage kobs at 640 uM GlcN6P” value in the data set with glucosamine-6-phosphate [1] was below 1e-05 s⁻¹.

As to C10G A12U U46A, the “self-cleavage kobs at 640 uM GlcN6P” value in the data set with glucosamine-6-phosphate [1] was below 1e-05 s⁻¹.

Consider G29A C34U G44C A53U C68U, for which the “self-cleavage kobs at 640 uM GlcN6P” value with glucosamine-6-phosphate [1] was below 1e-05 s⁻¹.

As for C16A G32A C70G, in the data set with glucosamine-6-phosphate [1], the “self-cleavage kobs at 640 uM GlcN6P” value was found to be 7.42e-05 ± 3e-05 s⁻¹. Besides, in the data set with glucosamine-6-phosphate [3], the “self-cleavage kobs at 10000 uM GlcN6P” value worked out at 0.000127 ± 3.4e-05 s⁻¹.

G40C U47C C68G: the “self-cleavage kobs at 640 uM GlcN6P” value with glucosamine-6-phosphate [1] was below 1e-05 s⁻¹.

For A14G G29U G38C U56C, in the data set with glucosamine-6-phosphate [1], the “self-cleavage kobs at 640 uM GlcN6P” value is below 1e-05 s⁻¹.

C16U A33C: the “self-cleavage kobs at 640 uM GlcN6P” value in the data set with glucosamine-6-phosphate [1] came out at 9.7e-05 ± 3.1e-05 s⁻¹. Further, the “self-cleavage kobs at 2500 uM GlcN6P” value with glucosamine-6-phosphate [2] stood at 8.5e-05 ± 2.1e-05 s⁻¹. Moreover, the “self-cleavage kobs at 10000 uM GlcN6P” value with glucosamine-6-phosphate [3] came to 0.000247 ± 3.7e-05 s⁻¹.

G7A C10U G29A U30G: the “self-cleavage kobs at 640 uM GlcN6P” value in the data set with glucosamine-6-phosphate [1] is below 1e-05 s⁻¹.

Consider G13A G37A G66C, for which the “self-cleavage kobs at 640 uM GlcN6P” value in the data set with glucosamine-6-phosphate [1] was below 1e-05 s⁻¹.

Regarding A3C U45A U65A, the “self-cleavage kobs at 640 uM GlcN6P” value with glucosamine-6-phosphate [1] was 0.00508 ± 0.0012 s⁻¹. In addition, the “self-cleavage kobs at 2500 uM GlcN6P” value in the data set with glucosamine-6-phosphate [2] was 0.00657 ± 0.001 s⁻¹.

As to G9C C16G G38U U65A, in the data set with glucosamine-6-phosphate [1], the “self-cleavage kobs at 640 uM GlcN6P” value is below 1e-05 s⁻¹. In addition, the “self-cleavage kobs at 2500 uM GlcN6P” value with glucosamine-6-phosphate [2] was below 1e-05 s⁻¹.

Take G29U G32A G44A A64U: the “self-cleavage kobs at 640 uM GlcN6P” value with glucosamine-6-phosphate [1] is below 1e-05 s⁻¹.

With C11A A48U C70A, the “self-cleavage kobs at 640 uM GlcN6P” value in the data set with glucosamine-6-phosphate [1] was 9.74e-05 ± 2.9e-05 s⁻¹.

As for G13A U56A C67A U69G, the “self-cleavage kobs at 640 uM GlcN6P” value with glucosamine-6-phosphate [1] is 0.000128 ± 3.8e-05 s⁻¹.

Regarding U31G U45C A53G, in the data set with glucosamine-6-phosphate [1], the “self-cleavage kobs at 640 uM GlcN6P” value worked out at 0.000175 ± 3.2e-05 s⁻¹. Besides, the “self-cleavage kobs at 2500 uM GlcN6P” value with glucosamine-6-phosphate [2] is 0.000528 ± 9.1e-05 s⁻¹.

As to A15C G32A G38U, in the data set with glucosamine-6-phosphate [1], the “self-cleavage kobs at 640 uM GlcN6P” value was below 1e-05 s⁻¹.

Regarding G37U C58U U69A, in the data set with glucosamine-6-phosphate [1], the “self-cleavage kobs at 640 uM GlcN6P” value stood at 5.7e-05 ± 1.7e-05 s⁻¹.

As to A15U G41U G66U C70U, in the data set with glucosamine-6-phosphate [1], the “self-cleavage kobs at 640 uM GlcN6P” value is 4.78e-05 ± 1.4e-05 s⁻¹.

G7C C8U: the “self-cleavage kobs at 640 uM GlcN6P” value in the data set with glucosamine-6-phosphate [1] is below 1e-05 s⁻¹.

In the case of G7U A39C U57G G63C C68U, the “self-cleavage kobs at 640 uM GlcN6P” value with glucosamine-6-phosphate [1] is below 1e-05 s⁻¹. Besides, the “self-cleavage kobs at 2500 uM GlcN6P” value in the data set with glucosamine-6-phosphate [2] was below 1e-05 s⁻¹.

For C16G A39G C71A, in the data set with glucosamine-6-phosphate [1], the “self-cleavage kobs at 640 uM GlcN6P” value came out at 0.000265 ± 9.1e-05 s⁻¹. For the same variant, the “self-cleavage kobs at 2500 uM GlcN6P” value with glucosamine-6-phosphate [2] worked out at 0.000286 ± 0.00013 s⁻¹.

For G9U C11U U30G, the “self-cleavage kobs at 640 uM GlcN6P” value with glucosamine-6-phosphate [1] is below 1e-05 s⁻¹.

For G41A G44U C70A, the “self-cleavage kobs at 640 uM GlcN6P” value with glucosamine-6-phosphate [1] was below 1e-05 s⁻¹.

Consider A12G A39G C70G, for which the “self-cleavage kobs at 640 uM GlcN6P” value with glucosamine-6-phosphate [1] amounted to 0.00011 ± 3.5e-05 s⁻¹.

Take U30C C34U U57A: the “self-cleavage kobs at 640 uM GlcN6P” value with glucosamine-6-phosphate [1] is below 1e-05 s⁻¹.

With G21U U47G, the “self-cleavage kobs at 640 uM GlcN6P” value with glucosamine-6-phosphate [1] amounted to 0.00247 ± 0.00049 s⁻¹.

For the variant U31G G37U U69G, the “self-cleavage kobs at 640 uM GlcN6P” value with glucosamine-6-phosphate [1] stood at 6.98e-05 ± 2.8e-05 s⁻¹. The “self-cleavage kobs at 2500 uM GlcN6P” value with glucosamine-6-phosphate [2] is 9.82e-05 ± 3e-05 s⁻¹.

Turning to G29C U30C U49G, the “self-cleavage kobs at 640 uM GlcN6P” value with glucosamine-6-phosphate [1] is below 1e-05 s⁻¹. In the data set with glucosamine-6-phosphate [3], the “self-cleavage kobs at 10000 uM GlcN6P” value is below 1e-05 s⁻¹.

Take A12U G32A A52U U54C C61G G63U C71A: the “self-cleavage kobs at 640 uM GlcN6P” value in the data set with glucosamine-6-phosphate [1] was below 1e-05 s⁻¹. Also, in the data set with glucosamine-6-phosphate [2], the “self-cleavage kobs at 2500 uM GlcN6P” value is below 1e-05 s⁻¹.

Consider G13C U56A C58G C71U, for which the “self-cleavage kobs at 640 uM GlcN6P” value with glucosamine-6-phosphate [1] was 3.8e-05 ± 1.2e-05 s⁻¹. Moreover, the “self-cleavage kobs at 2500 uM GlcN6P” value with glucosamine-6-phosphate [2] was 6.28e-05 ± 1.9e-05 s⁻¹.

In the case of G29C A39C C61G, the “self-cleavage kobs at 640 uM GlcN6P” value in the data set with glucosamine-6-phosphate [1] is below 1e-05 s⁻¹.

For the variant A6U G29U A52C, the “self-cleavage kobs at 640 uM GlcN6P” value with glucosamine-6-phosphate [1] is below 1e-05 s⁻¹.

On to G29C A42C A48C, for which the “self-cleavage kobs at 640 uM GlcN6P” value in the data set with glucosamine-6-phosphate [1] was below 1e-05 s⁻¹.
